We go through 16 molecules from patent US20230137032A1 (GlaxoSmithKline, published 2023).

Substitutions are numbered along the chain they refer to.

Sequences and labels used below:
T1: recombinant human BCMA, commercial (US Biological, B0410) (human, UniProt Q02223 5-54, limits assumed)
T1 construct: also called commercial human BCMA; Human commercial BCMA
T1 chain (looked up): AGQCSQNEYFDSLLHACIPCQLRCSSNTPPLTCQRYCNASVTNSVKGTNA

T2: human BCMA expressed on cells (human, UniProt Q02223 1-184)
T2 construct: whole, on cells; also called human BCMA HEK293; ARH77-hBCMA 10B5 BCMA expressing transfectant cells
T2 sequence (looked up): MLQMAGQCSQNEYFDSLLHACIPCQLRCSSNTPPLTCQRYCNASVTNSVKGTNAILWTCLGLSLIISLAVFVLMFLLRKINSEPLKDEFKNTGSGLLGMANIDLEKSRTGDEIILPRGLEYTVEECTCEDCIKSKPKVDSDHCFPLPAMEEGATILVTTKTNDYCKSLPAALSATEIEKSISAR

B1: CA8 humanised J7M1 (antibody, human IgG1, kappa, V domains shown)
VH: QVQLVQSGAEVKKPGSSVKVSCKASGYTFTNYWMHWVRQAPGQGLEWMGATYRGHSDTYYNQKFKGRVTITADKSTSTAYMELSSLRSEDTAVYYCARGAIYDGYDVLDNWGQGTLVTVSS
VL: DIQMTQSPSSLSASVGDRVTITCSASQDISNYLNWYQQKPGKAPKLLIYYTSNLHSGVPSRFSGSGSGTDYTLTISSLQPEDFATYYCQQYRKLPWTFGQGTKLEIKR
notes: Humanised CA8, heavy chain J7 with light chain M1, human IgG1 kappa; also called CA8 J7M1
B2: CA8 humanised J8M1 (antibody, human IgG1, kappa, V domains shown)
VH: B1 VH with A97T
VL: B1 VL
notes: Humanised CA8, heavy chain J8 with light chain M1, human IgG1 kappa; also called CA8 J8M1
B3: CA8 humanised J8M0 (antibody, human IgG1, kappa, V domains shown)
VH: B1 VH with A97T
VL: B1 VL with Y71F
notes: Humanised CA8, heavy chain J8 with light chain M0, human IgG1 kappa; also called CA8 J8M0
B4: CA8 humanised J9M0 (antibody, human IgG1, kappa, V domains shown)
VH: B1 VH with A24G, M48I, V68A, I70L, K74T, A97T
VL: B1 VL with Y71F
notes: Humanised CA8, heavy chain J9 with light chain M0, human IgG1 kappa; also called CA8 J9M0
B5: CA8 humanised J7M2 (antibody, human IgG1, kappa, V domains shown)
VH: B1 VH
VL: B1 VL with M4L, K45E, L47V
notes: Humanised CA8, heavy chain J7 with light chain M2, human IgG1 kappa; also called CA8 J7M2
B6: CA8 humanised J8M2 (antibody, human IgG1, kappa, V domains shown)
VH: B1 VH with A97T
VL: B1 VL with M4L, K45E, L47V
notes: Humanised CA8, heavy chain J8 with light chain M2, human IgG1 kappa; also called CA8 J8M2
B7: CA8 humanised J7M0 (antibody, human IgG1, kappa, V domains shown)
VH: B1 VH
VL: B1 VL with Y71F
notes: Humanised CA8, heavy chain J7 with light chain M0, human IgG1 kappa; also called CA8 J7M0
B8: CA8 humanised J9M1 (antibody, human IgG1, kappa, V domains shown)
VH: B1 VH with A24G, M48I, V68A, I70L, K74T, A97T
VL: B1 VL
notes: Humanised CA8, heavy chain J9 with light chain M1, human IgG1 kappa; also called CA8 J9M1
B9: CA8 humanised J9M2 (antibody, human IgG1, kappa, V domains shown)
VH: B1 VH with A24G, M48I, V68A, I70L, K74T, A97T
VL: B1 VL with M4L, K45E, L47V
notes: Humanised CA8, heavy chain J9 with light chain M2, human IgG1 kappa; also called CA8 J9M2
B10: S307118G03 humanised H2L0 (antibody, human IgG1, kappa, V domains shown)
VH: QVQLVQSGAEVKKPGSSVKVSCKASGYTFTDYYMKWVRQAPGQGLEWMGEIYPNNGGITYNQKFKGRVTITADKSTSTAYMELSSLRSEDTAVYYCANGYEFVYWGQGTLVTVSS
VL: B1 VL with D28G, N53S, Y71F, R92S
notes: Humanised, human IgG1 kappa
B11: S307118G03 humanised H3L0 (antibody, human IgG1, kappa, V domains shown)
VH: B10 VH with M48I, V68A, I70L, A72V
VL: B1 VL with D28G, N53S, Y71F, R92S
notes: Humanised, human IgG1 kappa
B12: S307118G03 humanised H2L1 (antibody, human IgG1, kappa, V domains shown)
VH: B10 VH
VL: B1 VL with D28G, N53S, R92S
notes: Humanised, human IgG1 kappa
B13: S307118G03 humanised H4L1 (antibody, human IgG1, kappa, V domains shown)
VH: B10 VH with N98D
VL: B1 VL with D28G, N53S, R92S
notes: Humanised, human IgG1 kappa
B14: CA8 humanised J6M1 (antibody, human IgG1, kappa, V domains shown)
VH: B1 VH with Y27G, T30S
VL: B1 VL
notes: Humanised CA8, heavy chain J6 with light chain M1, human IgG1 kappa; also called CA8 J6M1
B15: CA8 humanised J6M2 (antibody, human IgG1, kappa, V domains shown)
VH: B1 VH with Y27G, T30S
VL: B1 VL with M4L, K45E, L47V
notes: Humanised CA8, heavy chain J6 with light chain M2, human IgG1 kappa; also called CA8 J6M2
B16: S307118G03 H5L0 (antibody, human IgG1, kappa, V domains shown)
VH: B10 VH with M48I, V68A, I70L, A72V, V103D
VL: B1 VL with D28G, N53S, Y71F, R92S
notes: Humanised, human IgG1 kappa; also called S307118G03 humanised H5L0

For one assay, the target named is T1, recombinant human BCMA, commercial (US …). In words: Biacore T100, antibody captured on Protein A, 37C. On the technique in general: In SPR one partner is held on a chip, and binding of the other changes the refractive index at the surface.
B1: the Kd (commonly a measure of binding affinity in units of concentration) came out at 0.056 nM.
Turning to B2, the Kd was found to be 0.05 nM.
On to B3, for which the Kd is 0.052 nM.
On the same count and under the same terms, to B4 belongs 0.035 nM.
Consider B5, for which the Kd worked out at 0.057 nM.
Take B6: the Kd came to 0.057 nM.
As to B7, the Kd is 0.064 nM.
Turning to B8, the Kd was 0.018 nM.

The target of another assay is T3, recombinant cyno BCMA, in house material (cyno, UniProt A0A2K5UD97 4-52).
T3 construct: also called Cyno in house BCMA
T3 sequence (A0A2K5UD97 entry or part of it): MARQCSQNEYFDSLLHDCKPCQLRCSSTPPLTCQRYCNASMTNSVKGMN
In words: Biacore T100, antibody captured on Protein A, 37C.
Turning to B1, the Kd turned out to be 1.06 nM.
On to B2, for which the Kd was found to be 1.28 nM.
Turning to B9, the Kd came out at 0.515 nM.
With B3, the Kd came out at 1.08 nM.
For the molecule B4, the Kd came out at 0.46 nM.
Still for that read-out and setting: to B5 belongs 1.29 nM; to B6, 1.32 nM.
On the same count and under the same terms, to B7 belongs 1.14 nM; to B8, 0.442 nM.

In a further assay the target is T4, recombinant human BCMA, in house material (human, UniProt Q02223 4-53, limits assumed).
T4 construct: also called Human in house BCMA; In house human BCMA
In words: ProteOn SPR run 1, antibody captured on Protein A, 25C.
As for B10, the Kd was found to be 6.36 nM.
B11: the Kd is 5.31 nM.
For B12, the Kd worked out at 6.37 nM.
For the molecule B13, the binding result was “no binding (tested: up to 256 nM)”.

Another assay has as its target T3, recombinant cyno BCMA, in house material. Described as above.
For the molecule B10, the binding result was “no binding”.
Same read-out and setting: to B11 belongs “no binding”; to B12, “no binding”.
Still for that read-out and setting: to B13 belongs “no binding”.

The target of another assay is T1, recombinant human BCMA, commercial (US …). In words: ProteOn SPR run 2, antibody captured on Protein A, 25C.
In the case of B14, the Kd was 0.063 nM.
With B15, the Kd stood at 0.071 nM.

Another assay deals with T3, recombinant cyno BCMA, in house material. The assay is described as above.
For the molecule B14, the Kd was 5.3 nM.
Still for that read-out and setting: to B15 belongs 6.86 nM.
Regarding B16, the binding result was “no binding”.

The target in another assay is T1, recombinant human BCMA, commercial (US …). Put plainly: Biacore T100, antibody captured on Protein A, 25C, experiment 1. As for the experimental part:
(§1) Protein A was immobilised on a CMS chip (GE Healthcare, Cat No: BR-1005-30) by primary amine coupling and this surface was then used to capture the antibody molecules. Recombinant human BCMA (US Biological, B0410) was used as analyte at 256 nM, 64 nM, 16 nM, 4 nM and 1 nM. Regeneration of the capture surface was carried out using 50 mM NaOH. All binding curves were double referenced with a buffer injection (i.e. 0 nM) the data was fitted to the using the 1:1 model inherent to T100 evaluation software. The run was carried out at 25° C. and 37° C. for experiment 1 and only 37° C. for experiment 2 using HBS-EP as the running buffer.
As to B4, the Kd worked out at 0.021 nM.

A further assay shares this target. Put plainly: Biacore T100, antibody captured on Protein A, 37C, experiment 1. As for the experimental part: as §1
As for B4, the Kd turned out to be 0.042 nM.

For the next assay the target is unchanged. In words: Biacore T100, antibody captured on Protein A, 37C, experiment 2. As for the experimental part:
as §1
As to B4, the Kd stood at 0.052 nM.

The next assay concerns the target T4, recombinant human BCMA, in house …. Put plainly: ProteOn SPR run 2, antibody captured on Protein A, 25C; Run 2 (Table 9). The procedure:
The initial screen of CA8 chimeric and humanised variants was carried out on the ProteOn XPR36 (Biorad). The method was as follows; Protein A was immobilised on a GLC chip (Biorad, Cat No: 176-5011) by primary amine coupling, CA8 variants were then captured on this surface and recombinant human BCMA (in house or commercial US Biological, B0410) materials (run 2 only)) passed over at 256, 64, 16, 4, 1 nM with a 0 nM injection (i.e. buffer alone) used to double reference the binding curves, the buffer used is the HBS-EP buffer. 50 mM NaOH was used to regenerate the capture surface. The data was fitted to the 1:1 model using the analysis software inherent to the ProteOn XPR36. […] Both runs were carried out at 25° C.
Turning to B14, the Kd amounted to 0.124 nM.
Turning to B15, the Kd came to 0.202 nM.

Another assay concerns the target T2, human BCMA expressed on cells. In words: FACS on ARH77-hBCMA 10B5 transfectant cells, PE anti-human IgG, MFI. As for the experimental part: Cells were then washed with FACS buffer (PBS+0.5% BSA+0.1% sodium azide) to remove unbound antibody. Cells were incubated with a secondary PE labelled anti-human IgG antibody for 15 minutes at RT and then washed with FACS buffer to remove unbound antibody. Cells were analysed by FACS and mean fluorescence intensity (MFI) values measured to determine binding.
As for B14, the binding result is “binds”.
For the molecule B4, the binding result was “binds”.
On the same count and under the same terms, to B15 belongs “binds”; to B8, “binds”.
